Data from publication PMC5052118 (Nature structural & molecular biology, 2016).
Where two headings read alike, the source gives them in different places.

How the values were obtained:
Cch [1] = biological target: T1, Cch (Staphylococcus aureus USA300, UniProt A0A0H2XHF3 1-595); assay: EMSA
CchWH = CchWH (Staphylococcus aureus USA300, UniProt A0A0H2XHF3 436-595); assay: EMSA
LP1413 = biological target: T2, LP1413 (Staphylococcus aureus USA300, UniProt Q0WXP5 1-96); assay: EMSA
T2 sequence: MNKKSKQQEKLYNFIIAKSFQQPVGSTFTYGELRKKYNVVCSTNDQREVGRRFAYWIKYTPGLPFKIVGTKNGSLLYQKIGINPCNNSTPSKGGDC

crystal structure = biological target: the molecule itself; assay: crystal structure
Cch [2] = biological target: T1, Cch; assay: EMSA; remark: listed apart in the source

B1: scc-emsa-3F/4R 60 bp duplex (3' end of cch) (dsDNA)
DNA 1: TTTTAAATCCGCTAATGAAGGGATAGGCCCTTCAGGAGTTCACGAAGATTTCTAATTGTC
DNA 2: GACAATTAGAAATCTTCGTGAACTCCTGAAGGGCCTATCCCTTCATTAGCGGATTTAAAA
Cch [1]
  binding result: binds
CchWH
  binding result: binds

## GAGTAATGATATGTGGCTATGTCTTAATATATGTGAAGAA (ssDNA) [iter-int-1F ssDNA 40 nt]
LP1413
  binding result: binds

B2: iter-int-1F/inter-int-2R 40 bp duplex (dsDNA)
DNA 1: GAGTAATGATATGTGGCTATGTCTTAATATATGTGAAGAA
DNA 2: TTCTTCACATATATTAAGACATAGCCACATATCATTACTC
LP1413
  binding result: no binding

B3: Selenomethionine-derivatized Cch-6xHis (enzyme)
chain: MSYTLFEIGPFALDSFGWKETIPPKKDGDSEKVVRMASPIIVNARFSDPITGVEKLIITNNNGKKDIFESDILTTRNLPSLIKYGYSINEKYIRSLSYALQLMRDRLPLSELYEGVGILETPFGYLISLDKVLKSIQFNQSSPSYPIVDSAYDLTPKGTFDNWFNMYIDEVKGHLLLELAVIFGISALVTSFLKHKHEIEFAGILFSFTGQSSTGKSTAAALAVSVAGNPTKGNETLFRSWNATRNALEGYLSNNYGIPIVFDELSSTTLRDTTGLLYSIAEGQGRQRSNVHGEVKTPKNWGTSVISTSEYSIFNDSAQNDGLRVRTIEINEQFTTNATNADNIKKAVALNYGHVLPLVAKYLINREDEVIQWFYKEVDWFEAKLKDETNNTGIRMFKRYAVITTSAKILGRVLSTDIDIANIRDYFIDYHTHTVSERSLADKAIDVIIQFVAQNRGKFSDEGALKNMFENYGLISLKDDHIEVKIIANVFKQMLNNHQFQDVNNVVNALRDKGFILADRGRQTTKRSVKDNSGKKQSLVFYHLKLDVEFASILGLTKDKSLLQNWTPSNDNKAAKELFKSANEGIGPSGVHEDF
modifications: selenomethionine in place of methionine
Crystal structure
  stoichiometry N: 6

B4: HELA-8R ssDNA (ssDNA)
DNA: CGCTTTAAAAGAAGTCAACGTCTTACCACTTCCAGTTGTATGCCATACATATCC
Cch [2]
  binding result: binds
